Measured values as given in PMC6513899, “The structural basis of translational control by eIF2 phosphorylation” (Nature Communications, 2019).

T1: eIF2Bδ (subunit of eIF2B) (S. cerevisiae, UniProt P12754 1-651)
T1 construct: eIF2B delta subunit, S. cerevisiae; Stood in the assay as a subunit of the eIF2B decamer; also called eIF2B delta; source: S. cerevisiae strains GP5949 and GP7055, purified as part of Flag-eIF2B
T1 sequence: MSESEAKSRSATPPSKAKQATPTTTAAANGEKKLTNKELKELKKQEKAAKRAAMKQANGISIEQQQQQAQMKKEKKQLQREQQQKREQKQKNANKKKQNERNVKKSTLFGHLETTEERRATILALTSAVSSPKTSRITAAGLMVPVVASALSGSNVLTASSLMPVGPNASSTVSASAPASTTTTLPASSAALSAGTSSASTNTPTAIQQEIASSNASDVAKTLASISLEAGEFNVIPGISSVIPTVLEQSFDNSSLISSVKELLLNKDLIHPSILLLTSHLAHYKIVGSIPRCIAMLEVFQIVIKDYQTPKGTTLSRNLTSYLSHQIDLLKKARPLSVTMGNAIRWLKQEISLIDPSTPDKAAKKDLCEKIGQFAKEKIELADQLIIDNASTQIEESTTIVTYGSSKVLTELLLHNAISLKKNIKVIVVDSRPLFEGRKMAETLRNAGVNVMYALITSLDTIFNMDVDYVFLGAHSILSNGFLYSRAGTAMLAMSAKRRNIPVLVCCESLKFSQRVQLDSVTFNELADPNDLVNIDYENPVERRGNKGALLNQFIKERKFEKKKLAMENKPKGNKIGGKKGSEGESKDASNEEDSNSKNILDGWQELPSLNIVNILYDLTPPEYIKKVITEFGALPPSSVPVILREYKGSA


How the values were obtained:
[1] = biological target: the molecule itself; assay: cryo-EM structure; eIF2αP/eIF2B complex: six-fold molar excess of eIF2αP added to purified eIF2B (GP5949), fractionated on Superose 6 in 20 mM Tris-HCl, 100 mM KCl, 1 mM TCEP, pH 7.5; core map 3.9 Å, lateral densities 8-18 Å; half-particles classified by localised reconstruction
[2] = biological target: T1, eIF2Bδ (subunit of eIF2B); assay: as above; details: both partners purified

Row | Binder | binding result [1] | binding result [2]
1 | eIF2Bα (subunit of eIF2B) (natural protein, S. cerevisiae, eIF2B alpha subunit, S. cerevisiae; Stood in the assay as a subunit of the eIF2B decamer; also called eIF2B alpha; source: S. cerevisiae strains GP5949 and GP7055, purified as part of Flag-eIF2B) MSEFNITETYLRFLEEDTEMTMPIAAIEALVTLLRIKTPETAAEMINTIKSSTEELIKSIPNSVSLRAGCDIFMRFVLRNLHLYGDWENCKQHLIENGQLFVSRAKKSRNKIAEIGVDFIADDDIILVHGYSRAVFSLLNHAANKFIRFRCVVTESRPSKQGNQLYTLLEQKGIPVTLIVDSAVGAVIDKVDKVFVGAEGVAESGGIINLVGTYSVGVLAHNARKPFYVVTESHKFVRMFPLSSDDLPMAGPPLDFTRRTDDLEDALRGPTIDYTAQEYITALITDLGVLTPSAVSEELIKMWYD | binds | –
2 | eIF2Bβ (subunit of eIF2B) (natural protein, S. cerevisiae, eIF2B beta subunit, S. cerevisiae; Stood in the assay as a subunit of the eIF2B decamer; also called eIF2B beta; source: S. cerevisiae strains GP5949 and GP7055, purified as part of Flag-eIF2B) MSSQAFTSVHPNAATSDVNVTIDTFVAKLKRRQVQGSYAIALETLQLLMRFISAARWNHVNDLIEQIRDLGNSLEKAHPTAFSCGNVIRRILAVLRDEVEEDTMSTTVTSTSVAEPLISSMFNLLQKPEQPHQNRKNSSGSSSMKTKTDYRQVAIQGIKDLIDEIKNIDEGIQQIAIDLIHDHEILLTPTPDSKTVLKFLITARERSNRTFTVLVTEGFPNNTKNAHEFAKKLAQHNIETLVVPDSAVFALMSRVGKVIIGTKAVFVNGGTISSNSGVSSVCECAREFRTPVFAVAGLYKLSPLYPFDVEKFVEFGGSQRILPRMDPRKRLDTVNQITDYVPPENIDIYITNVGGFNPSFIYRIAWDNYKQIDVHLDKNKA | – | binds
